Source: article PMC2040504

Target: CXCR4 (human (endogenous in CEM)) (UniProt P61073)
Assay: radioligand binding; competition: 0.25 nM 125I-CXCL12α and a range of concentrations of unlabelled CXCL12 (α, γ or γ-m1) on CEM cells (10^7 cells/ml), 100 µl PBS, 1 h, 4°C; cell-associated radioactivity counted

Sequence of UniProt P61073 (P61073 whole entry): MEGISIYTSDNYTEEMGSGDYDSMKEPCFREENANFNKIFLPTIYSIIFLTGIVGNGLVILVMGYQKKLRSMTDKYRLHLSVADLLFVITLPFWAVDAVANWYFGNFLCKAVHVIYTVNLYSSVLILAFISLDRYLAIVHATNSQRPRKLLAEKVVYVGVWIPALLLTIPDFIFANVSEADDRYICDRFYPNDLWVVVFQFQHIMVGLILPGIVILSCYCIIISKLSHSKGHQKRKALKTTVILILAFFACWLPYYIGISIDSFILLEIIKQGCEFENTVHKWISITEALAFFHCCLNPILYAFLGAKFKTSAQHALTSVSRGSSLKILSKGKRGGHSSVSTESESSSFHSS

- IC50: 350 nM
Substance: CXCL12γ (ligand)
